# Results published in patent US20250197488A1 (MABWELL SHANGHAI BIOSCIENCE, published 2025).
# Changes are numbered by the printed parent chain.
# T1: IL-11 (Cat. 12225-HNCE, Sino Biological Inc.) (UniProt P20809 22-199, limits assumed)
# T1 sequence (looked up): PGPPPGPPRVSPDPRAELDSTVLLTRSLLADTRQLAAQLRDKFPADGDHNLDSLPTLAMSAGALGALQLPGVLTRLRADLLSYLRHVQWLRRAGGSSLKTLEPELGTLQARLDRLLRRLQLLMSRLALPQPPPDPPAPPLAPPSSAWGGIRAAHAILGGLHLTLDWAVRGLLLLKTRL
# T2: human IL-11 (AAH12506.1, Pro22-Leu199) (human, UniProt P20809 22-199)
# T2 construct: The range Pro22-Leu199 counts on AAH12506.1; The Octet runs say only 'human IL-11'; also called hIL-11
# T2 chain: T1 sequence (looked up) with H154L
# B1: hz18A10-VHm19 + hz18A10-VLm19 (antibody, human IgG1, kappa, V domains shown)
# VH: EVQLVQSGAEVKKPGASVKVSCKASGYTFTHYNMDWVRQAPGQGLEWMGTIYPGNADTSYNQKFKGRVTMTRDTSTSTVYMELSSLRSEDTAVYYCARGDLYALDYWGQGTLVTVSS
# VL: DIQMTQSPSSLSASVGDRVTITCKASQSVYRDVAWYQQKPGKAPKLLIYSASNRYTGVPSRFSGSGSGTDFTFTISSLQPEDIATYYCQHDYSSPYTFGQGTKLEIKR
# notes: named hz18A10m19; also called hz18A10m19
# B2: hz18A10-VH + hz18A10-VLm9 (antibody, V domains shown)
# VH: B1 VH with H31T, A56G
# VL: DIQMTQSPSSLSASVGDRVTITCKASQSVYSDVAWYQQKPGKAPKLLIYSASNRYTGVPSRFSGSGSGTDFTFTISSLQPEDIATYYCQHDYSSPYTFGQGTKLEIK
# notes: Constant regions not restated for this antibody
# B3: hz18A10-VHm4 + hz18A10-VLm9 (antibody, V domains shown)
# VH: B1 VH with H31T, M34I, A56G
# VL: B2 VL
# notes: as for B2
# B4: hz18A10-VH + hz18A10-VLm5 (antibody, V domains shown)
# VH: B1 VH with H31T, A56G
# VL: B2 VL with Y30S, S31N, V33I
# notes: as for B2
# B5: hz18A10-VH + hz18A10-VLm12 (antibody, V domains shown)
# VH: B1 VH with H31T, A56G
# VL: B2 VL with Y30S, S31N, N53S
# notes: as for B2
# B6: hz18A10-VH + hz18A10-VLm1 (antibody, V domains shown)
# VH: B1 VH with H31T, A56G
# VL: B2 VL with Q27K, Y30S, S31N
# notes: as for B2
# B7: hz18A10-VH + hz18A10-VLm2 (antibody, V domains shown)
# VH: B1 VH with H31T, A56G
# VL: B2 VL with Q27Y, Y30S, S31N
# notes: as for B2
# B8: hz18A10-VHm1 + hz18A10-VLm9 (antibody, V domains shown)
# VH: B1 VH with H31T, A56G, Y102H, A103F
# VL: B2 VL
# notes: as for B2
# B9: hz18A10-VHm1 + hz18A10-VLm7 (antibody, V domains shown)
# VH: B1 VH with H31T, A56G, Y102H, A103F
# VL: B2 VL with Y30F, S31R
# notes: as for B2
# B10: hz18A10-VHm3 + hz18A10-VLm9 (antibody, V domains shown)
# VH: B1 VH with H31T, N33D, A56G
# VL: B2 VL
# notes: as for B2
# B11: hz18A10-VHm2 + hz18A10-VL (antibody, V domains shown)
# VH: B1 VH with H31T, A56G, Y102H, A103Y
# VL: B2 VL with Y30S, S31N
# notes: as for B2
# B12: hz18A10-VH + hz18A10-VLm8 (antibody, V domains shown)
# VH: B1 VH with H31T, A56G
# VL: B2 VL with S31H
# notes: as for B2
# B13: hz18A10-VH + hz18A10-VLm16 (antibody, V domains shown)
# VH: B1 VH with H31T, A56G
# VL: B2 VL with Y30S, S31N, S50R, N53R, T56P
# notes: as for B2
# B14: hz18A10-VH + hz18A10-VLm4 (antibody, V domains shown)
# VH: B1 VH with H31T, A56G
# VL: B2 VL with S28F, Y30S, S31N
# notes: as for B2
# B15: hz18A10-VH + hz18A10-VLm3 (antibody, V domains shown)
# VH: B1 VH with H31T, A56G
# VL: B2 VL with Q27H, Y30S, S31N
# notes: as for B2
# B16: hz18A10-VH + hz18A10-VLm13 (antibody, V domains shown)
# VH: B1 VH with H31T, A56G
# VL: B2 VL with Y30S, S31N, N53R
# notes: as for B2
# B17: hz18A10-VHm2 + hz18A10-VLm9 (antibody, V domains shown)
# VH: B1 VH with H31T, A56G, Y102H, A103Y
# VL: B2 VL
# notes: as for B2
# B18: hz18A10-VHm1 + hz18A10-VLm14 (antibody, V domains shown)
# VH: B1 VH with H31T, A56G, Y102H, A103F
# VL: B2 VL with Y30S, S31N, S50R, N53R
# notes: as for B2
# B19: hz18A10-VHm3 + hz18A10-VLm19 (antibody, V domains shown)
# VH: B1 VH with H31T, N33D, A56G
# VL: B2 VL with S31R
# notes: as for B2
# B20: hz18A10-VHm1 + hz18A10-VLm15 (antibody, V domains shown)
# VH: B1 VH with H31T, A56G, Y102H, A103F
# VL: B2 VL with Y30S, S31N, S50R, N53S
# notes: as for B2
# B21: hz18A10-VH + hz18A10-VLm10 (antibody, V domains shown)
# VH: B1 VH with H31T, A56G
# VL: B2 VL with Y30S, S31N, V33L
# notes: as for B2
# B22: hz18A10-VH + hz18A10-VLm11 (antibody, V domains shown)
# VH: B1 VH with H31T, A56G
# VL: B2 VL with Y30S, S31N, S50R
# notes: as for B2
# B23: hz18A10-VHm1 + hz18A10-VL (antibody, V domains shown)
# VH: B1 VH with H31T, A56G, Y102H, A103F
# VL: B2 VL with Y30S, S31N
# notes: as for B2
# B24: hz18A10-VHm4 + hz18A10-VLm18 (antibody, V domains shown)
# VH: B1 VH with H31T, M34I, A56G
# VL: B2 VL with S31R, S50R, N53S
# notes: as for B2
# B25: hz18A10-VHm2 + hz18A10-VLm11 (antibody, V domains shown)
# VH: B1 VH with H31T, A56G, Y102H, A103Y
# VL: B2 VL with Y30S, S31N, S50R
# notes: as for B2
# B26: hz18A10-VH + hz18A10-VLm18 (antibody, V domains shown)
# VH: B1 VH with H31T, A56G
# VL: B2 VL with S31R, S50R, N53S
# notes: as for B2
# B27: hz18A10-VH + hz18A10-VLm17 (antibody, V domains shown)
# VH: B1 VH with H31T, A56G
# VL: B2 VL with S31R, S50R
# notes: as for B2
# B28: hz18A10-VHm1 + hz18A10-VLm11 (antibody, V domains shown)
# VH: B1 VH with H31T, A56G, Y102H, A103F
# VL: B2 VL with Y30S, S31N, S50R
# notes: as for B2
# B29: hz18A10-VH + hz18A10-VLm6 (antibody, V domains shown)
# VH: B1 VH with H31T, A56G
# VL: B2 VL with Y30F, S31H
# notes: as for B2
# Biological target: T1, IL-11 (Cat. 12225-HNCE, Sino Biological …)
# Assay: cell-based or functional assay
row,"Blocking activity (IC50), STAT3-luc reporter",Binder
1,0.13 µg/mL,B1
2,1.25 µg/mL,B2
3,2.23 µg/mL,B3
4,18.1 µg/mL,B4
5,11.6 µg/mL,B5
6,19.3 µg/mL,B6
7,17.4 µg/mL,B7
8,11.1 µg/mL,B8
9,13.1 µg/mL,B9
10,0.248 µg/mL,B10
11,11.6 µg/mL,B11
12,3.12 µg/mL,B12
13,9.89 µg/mL,B13
14,16.4 µg/mL,B14
15,15.2 µg/mL,B15
16,14.2 µg/mL,B16
17,13.9 µg/mL,B17
18,9.68 µg/mL,B18
19,0.262 µg/mL,B19
20,1.88 µg/mL,B20
21,12.7 µg/mL,B21
22,4.07 µg/mL,B22
23,10.9 µg/mL,B23
24,1.94 µg/mL,B24
25,9.46 µg/mL,B25
26,4.38 µg/mL,B26
27,3.47 µg/mL,B27
28,7.4 µg/mL,B28
29,2.6 µg/mL,B29

# Biological target: T2, human IL-11 (AAH12506.1, Pro22-Leu199)
# Assay: BLI (Octet), antibody captured, human IL-11 in solution
# Procedure, shortened: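 On a Fortebio Octet QKe System, antibodies in HBS-EP+ buffer were captured on anti-mouse IgG Fc or anti-human Fc biosensors. Human IL-11 was flowed over at 300 nM in the same buffer, with a 300-second association followed by a 300-second dissociation. Blank-subtracted curves were fitted to a 1:1 Langmuir binding model to give kon, koff and Kd.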
Kd,koff,kon,Binder
0.101 nM,0.0001 s⁻¹,993000 M⁻¹ s⁻¹,B1
0.54 nM,0.000463 s⁻¹,859000 M⁻¹ s⁻¹,B2
0.488 nM,0.000496 s⁻¹,1.02e+06 M⁻¹ s⁻¹,B3
4.09 nM,0.00281 s⁻¹,688000 M⁻¹ s⁻¹,B4
3.54 nM,0.00265 s⁻¹,750000 M⁻¹ s⁻¹,B5
4.61 nM,0.00331 s⁻¹,718000 M⁻¹ s⁻¹,B6
2.3 nM,0.00185 s⁻¹,806000 M⁻¹ s⁻¹,B7
2.01 nM,0.000963 s⁻¹,479000 M⁻¹ s⁻¹,B8
2.4 nM,0.0013 s⁻¹,544000 M⁻¹ s⁻¹,B9
0.0959 nM,9.7e-05 s⁻¹,1.01e+06 M⁻¹ s⁻¹,B10
2.29 nM,0.00158 s⁻¹,692000 M⁻¹ s⁻¹,B11
0.803 nM,0.000746 s⁻¹,929000 M⁻¹ s⁻¹,B12
1.97 nM,0.000938 s⁻¹,699000 M⁻¹ s⁻¹,B13
3.12 nM,0.00237 s⁻¹,760000 M⁻¹ s⁻¹,B14
3.94 nM,0.00277 s⁻¹,704000 M⁻¹ s⁻¹,B15
3.99 nM,0.00268 s⁻¹,673000 M⁻¹ s⁻¹,B16
2.33 nM,0.000941 s⁻¹,404000 M⁻¹ s⁻¹,B17
1.03 nM,0.000341 s⁻¹,330000 M⁻¹ s⁻¹,B18
0.683 nM,0.000652 s⁻¹,954000 M⁻¹ s⁻¹,B19
0.585 nM,0.000265 s⁻¹,453000 M⁻¹ s⁻¹,B20
4.06 nM,0.00295 s⁻¹,727000 M⁻¹ s⁻¹,B21
1.8 nM,0.00134 s⁻¹,747000 M⁻¹ s⁻¹,B22
2.17 nM,0.00139 s⁻¹,640000 M⁻¹ s⁻¹,B23
0.322 nM,0.000266 s⁻¹,826000 M⁻¹ s⁻¹,B24
1.01 nM,0.000317 s⁻¹,314000 M⁻¹ s⁻¹,B25
0.419 nM,0.0003 s⁻¹,716000 M⁻¹ s⁻¹,B26
0.45 nM,0.000326 s⁻¹,725000 M⁻¹ s⁻¹,B27
0.825 nM,0.000287 s⁻¹,348000 M⁻¹ s⁻¹,B28
0.877 nM,0.000794 s⁻¹,905000 M⁻¹ s⁻¹,B29
